How the values were obtained:
[1] = biological target: MreB from Geobacillus stearothermophilus (MreB^Gs), wild type, 6-histidine-tagged (Geobacillus stearothermophilus ATCC 7953); assay: negative-stain electron microscopy; standard conditions with the lipid monolayer but without ATP
[2] = biological target: MreB from Geobacillus stearothermophilus (MreB^Gs), wild type, 6-histidine-tagged (Geobacillus stearothermophilus ATCC 7953); assay: negative-stain electron microscopy; standard conditions (2 mM ATP, 100 mM KCl, MreB 1.34 µM) without lipids, in solution; untreated or glow-discharged grids
[3] = biological target: MreB from Geobacillus stearothermophilus (MreB^Gs), wild type, 6-histidine-tagged (Geobacillus stearothermophilus ATCC 7953); assay: negative-stain electron microscopy; MreB 1.34 µM (0.27-1.34 µM in the concentration series) under a monolayer of E. coli total lipid extract; 20 mM Tris pH 7, 100 mM KCl, 2 mM ATP, 5 mM Mg2+, 1-2 h at 25-37 °C; untreated carbon grids; 12 fields a grid scored for pairs of protofilaments; 2D averaging of 1554 particles

“MreB from Geobacillus stearothermophilus (MreB^Gs), wild type, 6-histidine-tagged (natural protein)” was tested, and the percent of EM fields with polymers [1] was 4 % of fields, the percent of EM fields with polymers [2] was 8 % of fields and the critical concentration of polymerization [3] was 0.45 µM. The percent of EM fields with polymers [3] was 100 % of fields.

From article PMC10718530
